From the supplement of paper PMC10724198
± gives the standard deviation of the averaged measurements.

These sequences were tested on Saccharomyces cerevisiae (assay: protein stability index of tFT-peptide fusion (C-terminal peptide) (PSI (0-1 scale)); higher = more stable (slower turnover)). Settings: genetic background: wild type; temperature: 30 C.
Experimental: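 Multiplexed protein stability (MPS) profiling in S. cerevisiae. Random 12-aa peptides (tFT-X12 library) are fused to the C-terminus of a sfGFP-mCherry tandem fluorescent timer, after mCherry and a GGGS linker. Cells are FACS-sorted into 8 mCherry/sfGFP bins and deep-sequenced. The protein stability index (PSI) is the read-weighted bin average, scaled from 0 (unstable) to 1 (stable). Only peptides with >10 reads are reported; cells were grown at 30 °C in SC-His with glucose.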
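Also: PSI is a weighted mean of sequencing reads over stability bins, variants kept only with over 10 reads, mCherry proximal and sfGFP distal, peptide attached via GGGS linker.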

In order of falling protein stability index:
1. GAGGSGRRIGCR  0.762 ± 0.052
2. FPPLSHLPPGLY  0.758 ± 0.075
3. FWEHFVLSVRPE  0.758 ± 0.076
4. GATDMVTSGEWV  0.757 ± 0.021
5. GAKHDSSRQSLR  0.746 ± 0.086
6. FPPPPPSFSQPL  0.741 ± 0.034
7. FPSSALPPRLSL  0.7409 ± 0.0072
8. FPRRPHVESHIR  0.7359 ± 0.0042
9. FTLRFGYISDLD  0.736 ± 0.21
10. FVHSTLPPSFSI  0.735 ± 0.019
11. GAGRRRAQEQQT  0.728 ± 0.015
12. FSSSASNSSWPY  0.721 ± 0.016
13. FRGGRTEWEKNV  0.719 ± 0.058
14. GCGFYRTSRVPS  0.717 ± 0.059
15. FRAPYWCSRVFG  0.715 ± 0.095
16. GAMLAGRHGWGL  0.715 ± 0.04
17. FSPAPPLLLHPS  0.714 ± 0.043
18. FRHPGSAGPPVA  0.713 ± 0.011
19. GAAVSGGRARCP  0.712 ± 0.064
20. FWSCSTGHERVV  0.711 ± 0.03
21. FSWDRIKQCSSV  0.7094 ± 0.0035
22. GARVGDRALASG  0.7089 ± 0.0069
23. FPPPPPSRSRPV  0.708 ± 0.032
24. FRSFALFGNSFL  0.704 ± 0.0053
25. GARGRGLVTESA  0.703 ± 0.035
26. FSLPLCAITGPQ  0.702 ± 0.056
27. FSQNFVSTGFRL  0.702 ± 0.028
28. GALARFEGAVRV  0.702 ± 0.012
29. GAEPTPYVAEAI  0.701 ± 0.026
30. GAFSVPKAKNAL  0.699 ± 0.1
31. FRGGCDRIRYRM  0.696 ± 0.0089
32. FRRYGKEAVDKD  0.696 ± 0.011
33. FVGVRTLSRIKI  0.696 ± 0.053
34. GCCGGGGVEGLE  0.695 ± 0.022
35. FQWVLDGYRCWD  0.694 ± 0.098
36. FVFGSVLPGPTC  0.692 ± 0.0098
37. FTRFWTKANDPT  0.6913 ± 0.0014
38. FWECEYVIDDVD  0.69053 ± 0.00035
39. FSRPPPFPLFSS  0.69 ± 0.03
40. FPPPPPPLPPGS  0.687 ± 0.073
41. FSGISVMCLFSG  0.687 ± 0.12
42. FVKEGRVGTARS  0.687 ± 0.099
43. FVRLFSGTLKSV  0.687 ± 0.033
44. FVCRQSGIWHLR  0.686 ± 0.029
45. FVPQPFTPPSSF  0.685 ± 0.065
46. FVSTSFPPWFSL  0.684 ± 0.019
47. FPPLLFSSPPLP  0.683 ± 0.018
48. FSLFGVGQITFL  0.683 ± 0.056
49. FPPPRYPRRPTA  0.682 ± 0.018
50. FRRSLILPLPPT  0.6814 ± 0.0037
51. FSHLYCSLVTTD  0.681 ± 0.067
52. GAYSSFNGNSGD  0.681 ± 0.064
53. FRPPFRSAPLSP  0.679 ± 0.051
54. GAGGGGNLGWLR  0.6788 ± 0.0063
55. FPTIGLSCSFPH  0.676 ± 0.042
56. FSPALPPSHSPP  0.676 ± 0.057
57. GAGAHVPCSGRQ  0.6754 ± 0.0034
58. GAGGVRCPWVFG  0.674 ± 0.0075
59. FSLFSSPPSLFC  0.672 ± 0.03
60. FSPASCPILPPL  0.672 ± 0.014
61. FTHVKEVNTGNR  0.672 ± 0.053
62. GAPRYRLQRPVP  0.672 ± 0.029
63. GAVHQLGTCLFF  0.671 ± 0.045
64. FRLYALAPHSPG  0.67 ± 0.027
65. GAGRGRLGVGPV  0.67 ± 0.066
66. FRGSVRLIGFAQ  0.666 ± 0.0081
67. FVYHGLVGKRMV  0.666 ± 0.051
68. GARGGGQSSFGE  0.666 ± 0.012
69. GATLETPIGCGR  0.666 ± 0.0074
70. FTPLPHAHPPPP  0.664 ± 0.0034
71. GAPTPPGAPPPA  0.6642 ± 0.0048
72. FSSPLLLFHLPV  0.663 ± 0.04
73. FVIAGDLYGLYV  0.658 ± 0.045
74. GAGGGSGGGQPG  0.656 ± 0.032
75. FTVSPFIFLFSP  0.653 ± 0.0074
76. FSSCFLVSPSLF  0.648 ± 0.016
77. FSTLLVSPLQAS  0.641 ± 0.022
78. FSTVIDFLAYLF  0.636 ± 0.036
79. FPSSSHLPWLLI  0.633 ± 0.014
80. GAGEGVGSVVVR  0.632 ± 0.052
81. GAAARSGSRKEL  0.631 ± 0.029
82. GAGNVGSGCGGG  0.631 ± 0.035
83. FRLLSTINSCCV  0.612 ± 0.036
84. GACDGEGGSRVR  0.611 ± 0.0075
85. FVRFLVGGLGRW  0.606 ± 0.05
86. FWFFRGALVHPA  0.599 ± 0.019
87. FRYSSLPRPLVF  0.5893 ± 0.0029
88. FTFARPVCLFFG  0.587 ± 0.003
89. FVPFVLFLLRPL  0.582 ± 0.022
90. FRGALFLLSSRV  0.571
91. FYFRFPGFLAGF  0.5687 ± 0.0052
92. FRLLHLPALSCP  0.565 ± 0.013
93. FTLCPARALSLC  0.552 ± 0.024
94. FYYRYDRRTRCV  0.548 ± 0.012
95. FSSFVLLFFSFP  0.541 ± 0.011
96. FQGRLILCIETR  0.5323 ± 0.00074
97. FRQWCTEVYIEV  0.531 ± 0.031
98. FYGCRLLFLKAR  0.5273 ± 0.00073
